# Experimental data from paper PMC5759053.
# Target: Positive controls (Ci-M1; TRPV4-Ci, each with Ce-M1)
# Experiment: FRET or BRET
# Chain of cerulean-AQP4 M1 (P55088 whole entry): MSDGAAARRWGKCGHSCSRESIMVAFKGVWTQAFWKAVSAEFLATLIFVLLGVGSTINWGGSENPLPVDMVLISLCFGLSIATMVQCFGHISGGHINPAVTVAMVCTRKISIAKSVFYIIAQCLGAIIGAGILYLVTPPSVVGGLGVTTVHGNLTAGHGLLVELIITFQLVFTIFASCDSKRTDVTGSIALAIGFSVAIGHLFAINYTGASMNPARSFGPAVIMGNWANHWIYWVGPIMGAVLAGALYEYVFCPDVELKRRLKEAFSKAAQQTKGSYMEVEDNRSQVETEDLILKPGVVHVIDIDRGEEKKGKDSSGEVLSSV
substance,measurement,value
cerulean-AQP4 M1 (from UniProt P55088-1 1-323) (natural protein),FRET efficiency,8 to 10%
